Test results from patent publication US9913914B2, “Cell transport” (priority 2013, dated 2018).

Tests used:
Format in all cases: cell-based, Dictyostelium discoideum
PTEN [1] = test: Inositol phospholipid levels in starving Dictyostelium cells (solvent extraction, thin layer chromatography); details: 10 micromolar, 1 hour
Description: FIG. 9. The levels of the 4 inositol phospholipids (PI, PIP, PIP2 and PIP3) in wild-type Dictyostelium cells undergoing starvation were measured by solvent extraction of cell cultures and analysis using thin layer chromatography. The effect of Cupid B-PTEN peptide treatment (10 micromolar, 1 hour) was calculated as a percentage change in the basal (untreated) levels.
The PTEN protein has a phospholipase enzymatic activity that functions to remove phosphate groups from inositol-based lipids and as such is involved with maintaining the balance between varieties of inositol phospholipids present at the cell surface. In wild-type cells undergoing starvation the inositol phospholipids with 3 and 4 phosphate groups (PIP2 and PIP3) are kept low, largely due to the action of PTEN.
We determined the effect of Cupid B-PTEN peptide on the inositol phospholipid levels in Dictyostelium cultures. Cupid B-PTEN peptide treated cells (10 micromolar, 1 hour) alters the basal levels of inositol phospholipids in Dictyostelium cells.

[2] = test system: Dictyostelium cells (PTEN-null phenotype); test: Streaming/aggregation of starved wild-type Dictyostelium cultures compared with PTEN-null mutant; details: 10 micromolar dose
Description: FIG. 8. Cupid can transport large molecule cargo into the cell. Starved Dictyostelium cultures were plated into petri dishes in starvation buffer and visualised after 10 hours. In untreated wild-type (WT) cultures (A), cells stream together into aggregation centres, co-ordinated by cell to cell signaling.
In Dictyostelium, a genetic mutant in which the PTEN gene is absent causes marked changes in phenotype.

PTEN [3] = test: Protein phosphorylation response to cyclic AMP in starving Dictyostelium cultures (antibody detection on SDS gels); details: pretreated 1 hour, 10 micromolar
Source text: FIG. 10. In starving Dictyostelium cultures, several proteins undergo rapid phosphorylation/dephosphorylation events in response to an applied dose of cyclic AMP. The strength of this response is limited by PTEN enzyme activity. This response is visualised with antibody detection of these phosphoproteins on SDS gels prepared from extracted cultures at the time points indicated after the cAMP dose.
In starving Dictyostelium cultures, several proteins undergo rapid phosphorylation/dephosphorylation events in response to an applied dose of cyclic AMP. The strength of this initial phosphorylation response is limited by PTEN enzyme activity and is associated with changes in PIP2 and PIP3 inositol phospholipid levels.

B1: Cupid B-PTEN peptide: SEQ ID NO: 12; His-tagged Cupid B fused to 167 amino acid C2 region (186-352) of human PTEN (protein, listed as Homo sapiens)
chain: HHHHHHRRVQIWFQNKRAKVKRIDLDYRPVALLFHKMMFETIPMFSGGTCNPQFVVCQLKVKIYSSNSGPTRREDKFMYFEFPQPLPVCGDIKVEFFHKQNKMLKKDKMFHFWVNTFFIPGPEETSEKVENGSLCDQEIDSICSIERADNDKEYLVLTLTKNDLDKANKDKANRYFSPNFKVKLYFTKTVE
modifications: His tag
notes: His-tagged Cupid B fused to 167 amino acid C2 region (186-352) of human PTEN
With B1 the “level of PIP2 relative to untreated basal levels” value (PTEN [1]) was “+75%”, the “level of PIP3 relative to untreated basal levels” value (PTEN [1]) was “+150%” and the “aggregation behaviour of wild-type cells during starvation” value [2] was “exhibit the same distinctive behaviour as the PTEN-Null strain”. For the same molecule, the “initial phosphorylation response to cyclic AMP versus untreated cultures” value (PTEN [3]) was “much stronger initial phosphorylation response”.
